Bridge positions count the residues as written; N and C are the ends. Ends that are not written are not given here.
T1: recombinant bacterially-purified mouse ΔDCN (His6-tagged, amino acids 45-354 of mouse DCN) (mouse, UniProt P28654 45-354)
T1 construct: Expressed in bacteria, so not glycosylated; also called delta-DCN; His6-ΔDCN
T1 sequence: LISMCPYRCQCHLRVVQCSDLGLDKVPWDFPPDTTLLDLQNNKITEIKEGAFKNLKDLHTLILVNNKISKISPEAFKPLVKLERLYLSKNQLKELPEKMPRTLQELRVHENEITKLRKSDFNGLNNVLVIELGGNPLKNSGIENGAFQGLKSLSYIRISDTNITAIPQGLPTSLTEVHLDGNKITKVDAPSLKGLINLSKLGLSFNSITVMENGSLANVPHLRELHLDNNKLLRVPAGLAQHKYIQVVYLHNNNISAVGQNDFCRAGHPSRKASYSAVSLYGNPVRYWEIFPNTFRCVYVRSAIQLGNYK


Columns and labels:
bovine serum albumin [1] = molecular target: T2, bovine serum albumin (bovine, UniProt P02769 25-607); experiment: ELISA, BSA coated as background control
T2 construct: Background control in ELISA; also called BSA
Description: (§1) Signal was detected by Odyssey imaging system using anti-goat IRDye 800CW or anti-rabbit IRDye 680 both from Licor Biosciences. Bovine DCN was from Sigma-Aldrich, NS0-derived murine DCN was from R&D Systems. Murine DCN cDNA was generated from WAT total RNA using SuperScript kit (Invitrogen). For bacterial expression, full-length mouse core DCN and ΔDCN isoforms were produced by cloning fragments encoding amino acids 1-354 and 45-354 of mouse DCN cDNA (OriGene) or of CLIC4 cDNA (OriGene) in-frame with the His₆Tag into pET28a vector, respectively. His₆-tagged proteins were purified with His-Tag kit (Novagen). For ELISA binding assays, 100 μl of 10 μg/ml of indicated His₆-DCN preparations, His₆-CLIC4 (control His₆-protein), NS0 cell-expressed mouse DCN (R&D Systems), purified bovine DCN (Sigma-Aldrich), or BSA were coated and immobilized onto Maxisorb Immunoplates (96 well; NUNC) overnight at 4° C., followed by blocking with 3% BSA, and then incubating with 100 μl of indicated concentrations of WAT7 or control WAT2 peptides. […] Bound peptides or FLAG-resistin were probed with corresponding rabbit anti-peptide Genemed antibodies (1:2,000) or rabbit anti-FLAG antibodies (Sigma-Aldrich, 1:2,000) followed by secondary goat anti-rabbit HRP-conjugated antibodies (Millipore, 1:5,000) and signal detection with Ultra-TMB (Pierce) substrate and measurement of absorbance at 450 nm. […]

[2] = molecular target: T3, glycosylated bovine DCN (purified, Sigma-Aldrich) (bovine, UniProt P21793 31-360, glycosylated (GAG chain)); experiment: ELISA, protein coated (FIG. 16B)
T3 construct: also called bDCN*
Description: as §1, with “Bovine” for “Signal was detected by Odyssey imaging system using anti-goat IRDye 800CW or anti-rabbit IRDye 680 both from Licor Biosciences. Bovine”

[3] = molecular target: T3, glycosylated bovine DCN (purified, …); experiment: ELISA, protein coated, FLAG-resistin detected with anti-FLAG (FIG. 6D)
Description: as §1

[4] = molecular target: T1, recombinant bacterially-purified mouse …; experiment: ELISA, DCN forms coated, FLAG-resistin detected with anti-FLAG (FIG. 6D); reference: full-length DCN (mDCN)
Description: For bacterial expression, full-length mouse core DCN and ΔDCN isoforms were produced by cloning fragments encoding amino acids 1-354 and 45-354 of mouse DCN cDNA (OriGene) or of CLIC4 cDNA (OriGene) in-frame with the His₆Tag into pET28a vector, respectively. His₆-tagged proteins were purified with His-Tag kit (Novagen). For ELISA binding assays, 100 μl of 10 μg/ml of indicated His₆-DCN preparations, His₆-CLIC4 (control His₆-protein), NS0 cell-expressed mouse DCN (R&D Systems), purified bovine DCN (Sigma-Aldrich), or BSA were coated and immobilized onto Maxisorb Immunoplates (96 well; NUNC) overnight at 4° C., followed by blocking with 3% BSA, and then incubating with 100 μl of indicated concentrations of WAT7 or control WAT2 peptides. For adipokines binding assay, FLAG-tagged mouse resistin produced in HEK293 cells (Enzo Life Sciences), or control FLAG-BAP protein (Sigma-Aldrich) were incubated at the concentrations indicated. Bound peptides or FLAG-resistin were probed with corresponding rabbit anti-peptide Genemed antibodies (1:2,000) or rabbit anti-FLAG antibodies (Sigma-Aldrich, 1:2,000) followed by secondary goat anti-rabbit HRP-conjugated antibodies (Millipore, 1:5,000) and signal detection with Ultra-TMB (Pierce) substrate and measurement of absorbance at 450 nm. […]

bovine serum albumin [5] = molecular target: T2, bovine serum albumin; experiment: ELISA, BSA coated as background control (FIG. 6D)
Description: as §1

T2 sequence (P02769 25-607 limits assumed): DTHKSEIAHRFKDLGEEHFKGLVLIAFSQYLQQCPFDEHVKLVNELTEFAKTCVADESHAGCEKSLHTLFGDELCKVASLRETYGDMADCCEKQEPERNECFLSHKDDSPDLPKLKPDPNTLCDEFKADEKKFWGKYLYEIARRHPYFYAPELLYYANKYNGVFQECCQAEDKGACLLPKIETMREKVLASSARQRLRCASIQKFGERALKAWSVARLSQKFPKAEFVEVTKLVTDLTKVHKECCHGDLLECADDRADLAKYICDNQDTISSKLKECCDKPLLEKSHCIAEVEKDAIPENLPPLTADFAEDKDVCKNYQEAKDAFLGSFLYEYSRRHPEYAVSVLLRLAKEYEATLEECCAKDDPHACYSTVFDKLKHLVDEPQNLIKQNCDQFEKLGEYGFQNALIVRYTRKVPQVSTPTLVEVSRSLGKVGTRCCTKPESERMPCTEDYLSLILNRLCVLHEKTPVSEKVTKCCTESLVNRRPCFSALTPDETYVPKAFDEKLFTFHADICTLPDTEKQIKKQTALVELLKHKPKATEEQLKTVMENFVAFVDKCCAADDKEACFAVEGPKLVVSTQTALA
T3 sequence (P21793 31-360 limits assumed): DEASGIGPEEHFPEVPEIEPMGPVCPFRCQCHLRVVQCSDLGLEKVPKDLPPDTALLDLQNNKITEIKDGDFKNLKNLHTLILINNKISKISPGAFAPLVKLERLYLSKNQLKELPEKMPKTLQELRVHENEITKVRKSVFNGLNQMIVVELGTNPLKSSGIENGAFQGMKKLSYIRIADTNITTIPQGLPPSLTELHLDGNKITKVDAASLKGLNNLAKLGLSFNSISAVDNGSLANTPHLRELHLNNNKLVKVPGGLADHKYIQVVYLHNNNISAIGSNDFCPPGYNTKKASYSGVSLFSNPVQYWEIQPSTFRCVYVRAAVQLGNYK

Binder | binding result (bovine serum albumin [1]) | binding result [2] | binding result [3] | fold lower molar concentration for binding than to full-length DCN [4] [fold] | binding result (bovine serum albumin [5])
CSWKYWFGEC (disulfide 1-10, Chemically synthesized (Genemed Synthesis); also called cyclic WAT7) [WAT7 peptide, cysteine-cyclized synthetic (CSWKYWFGEC)] | no binding | no binding | – | – | –
FLAG-tagged mouse resistin produced in HEK293 cells (Enzo Life Sciences) (ligand, UniProt Q99P87 21-114, looked up, Bought protein; also called FLAG-resistin; ADSF; not shown: FLAG tag) SSMPLCPIDEAIDKKIKQDFNSLFPNAIKNIGLNCWTVSSRGKLASCPEGTAVLSCSCGSACGSWDIREEKVCHCQCARIDWTAARCCKLQVAS | – | – | no binding | 100 | no binding

— patent US20160000930A1 (University of Texas, published 2016)
